Experimental data taken from the supplement of paper PMC10567573.

B1: TBX5 (parent)
chain: FHEVGTEMIITKAGRRMFPSYKVK
B2: ZER1 (parent)
chain: FDGPEAWGVCEPQREEVEERMWAA

Variants of: B1
Assay: protein stability index of a GFP-peptide fusion (GPS, HEK-293T) (PSI 1-6); higher = more stable
Conditions: c terminus: a fixed tail appended
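Also: lentivirally expressed fusions sorted by FACS into six bins by GFP to DsRed ratio, PSI derived from sequencing read proportions per bin multiplied by bin number.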

Protein stability index: each site, then its substitutions
P19: I 2.23; K 3.38; R 2.89; H 1.09
G5: A 2.44; P 2.05; H 1.92; N 1.5; I 3.47
R15: H 2.14; K 1.92; E 1.74; P 1.87; G 1.77
M8: P 2.08; Y 1.87; R 1.79; T 2.2; Q 2.06; W 2.07
E7: V 1.84; L 1.93
T11: R 2.47; D 2.13; N 2.46; S 3.49; E 2.36; I 1.19
F1: A 3.81
K12: V 2.68; S 2.51; D 2.57; C 1.31; Q 1.73
V4: T 2.34; P 1.86; H 1.85; S 1.95; E 2.23; F 2.65
S20: V 1.97; D 2.18; W 2.42; G 1.93; A 1.89
T6: Q 2.2; K 2.23; E 3.65
F18: M 2.23; V 2.01; H 3.08; C 2.61; Y 2.07; A 2.76; L 2.51
G14: Y 2.17; I 1.66; K 1.68; F 2.41; D 1.48; S 1.83; H 1.73
Y21: A 2.66; C 2.21; I 1.48; W 1.87; P 2.13; R 3.16; T 2.42; D 2.64; S 2.61
I9: R 2.68; C 1.5; L 1.79; D 2.38; N 2.46
K22: N 2.03; C 1.86; P 2.08; S 2.18; A 1.97; V 1.43; D 2.34; I 2.03
E3: S 2.8; K 1.45; A 1.87; C 2.54
I10: S 3.26; M 1.63; A 1.68; T 1.91; Q 2.45
R16: Y 1.92; T 2.03; G 2.43; L 2.09; E 2.38
H2: L 2.07; V 2.38; D 2.67; F 2.39
M17: Y 2.44; S 2.68; K 2.11; N 1.87; I 1.98; D 2.28
A13: S 1.87; R 2.65
K24: F 2.83; N 1.08; G 2.03; P 1.55; V 1.65; M 2.55
V23: M 1.78; H 2.17; D 2.52; W 2.2; K 2.24; F 2.23

Variants of: B2
Assay: as above
Conditions: c terminus: a fixed tail appended

Protein stability index of substitutions, site by site:
E5: W 2.54; A 2.82; K 3.13; C 3.73; Q 3.54; V 3.33; R 3.48; H 2.59; S 2.61; G 3.26; I 2.94; F 3.67; N 1.95; D 2.99; Y 2.76; L 1.64; P 3.42
V9: A 3.21; T 3.15; D 4.92; F 2.94; C 2.03; W 3.22; G 3.25; E 4.03; S 4.12; R 2.5; P 3.08; N 3.35; Q 3.05; Y 2.48; K 2.59; M 2.63; H 3.18; I 2.09
Q13: S 2.71; G 2.75; R 2.21; T 2.43; L 2.68; V 3.23; M 2.46; I 2.76; N 2.94; D 2.92; H 2.44; E 2.86; W 2.17; K 2.91; F 2.31; A 2.72
W7: M 3.64; Q 5.22; P 4.52; C 4.66; G 4.94; R 3.97; H 4.63; S 4.92; I 4.89; K 4.81; V 4.98; Y 3.98; D 5.1; A 4.29; N 4.58; E 4.54; T 4.69
G8: A 1.96; H 2.33; F 1.55; D 3.75; E 4.19; R 2.42; C 2.33; L 3.64; M 1.79; Y 3.39; I 2.25; V 1.6; N 2.62; S 1.95; K 2.25; Q 2.74; P 4.17
P12: M 3.3; E 3.17; Y 2.64; V 2.47; C 2.33; Q 3.22; H 3.17; K 2.9; L 2.47; D 2.88; I 2.31; G 2.69; W 3.81; S 3.14; T 3.17; R 3.53; F 2.93
P4: H 1.79; Y 1.95; V 2.48; S 3.29; R 2.81; F 1.91; L 2.47; I 3.23; E 4.48; A 2.48; T 3.25; C 2.63; D 3.89; Q 3.25; M 3.65; G 2.73; K 3.02
D2: W 3.21; L 2.62; E 2.08; F 1.68; R 1.8; K 3.26; I 5.1; Q 2.69
E11: Y 1.87; T 2.58; W 1.81; N 1.83; C 2.15; K 2.12; L 1.85; D 2.67; I 3.01; F 1.89; P 2.64; V 1.96; Q 1.9; A 1.87; H 2.55; M 3.24; R 1.93; S 2.73
F1: T 4.94; C 4.17; Y 3.15; W 4.5; E 4.99; P 5.04; D 4.33; R 4.45; I 4.69; M 3.3; K 3.97; G 4.72; Q 4.88; A 5.03; S 4.77; N 4.87; L 3.93
A6: S 3.53; E 4.45; N 3.6; L 1.56; W 1.63; G 3.38; K 3.02; Y 1.82; H 2.38; R 3.35; T 2.48; C 2.57; P 3.77; I 2.43; Q 3.59; V 2.76; D 4.67
C10: H 3.64; K 3.48; E 3.93; V 2.55; P 3.64; M 3.13; T 3.3; S 2.66; D 4.42; F 3.21; W 2.6; N 3.26; Y 2.86; Q 3.26; I 2.86; A 3.02; L 3.15; R 2.6; G 4.03
G3: L 1.62; F 2.06; T 1.98; S 1.96; W 2.12; H 1.87; D 2.56; M 2.1; E 1.52; V 1.63; N 2.58; I 1.78; P 4.42; C 3.88
